From patent US11780903B2, “Peptide suppressing binding of CTLA4 to B7 proteins, and use thereof” (TOAGOSEI CO., LTD., priority 2020, dated 2023)
No end group written: not given here.

Assays:
[1] = molecular target: T1, binding of CTLA4 to B7-1 (Homo sapiens, UniProt P16410); assay: Test for evaluating binding inhibitory properties between CTLA4 and B7-1 (BPS #72009 inhibitor screening assay kit, chemiluminescence); details: peptide concentration 5 μM and/or 10 μM as in Table 2; plate-coated CTLA4, biotin-labeled B7-1; n=2 wells; versus no peptide added
T1 construct: purchased BPS Bioscience BPS #72009
T1 sequence (P16410 36-161 limits assumed): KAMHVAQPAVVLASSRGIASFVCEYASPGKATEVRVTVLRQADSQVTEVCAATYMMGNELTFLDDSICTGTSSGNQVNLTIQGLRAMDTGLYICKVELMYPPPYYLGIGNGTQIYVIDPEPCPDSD
Procedure: The binding inhibitory properties between CTLA4 and B7-1 were evaluated for the 6 kinds of sample peptides synthesized in the above-described Test Example 1.
In this test, Test Examples 2-1 to 2-9 were set according to the kinds of sample peptide used and the peptide concentration as shown in Table 2 below. In addition, a peptide-free group was set as Test Example 2-10. The tests of the above-described 10 categories in total were carried out as follows. The numbers “1 to 10” shown in the “No.” column of Table 2 represent “Test Examples 2-1 to 2-10” in Test Example 2. In addition, the number (n) of test wells in each of the above-described examples was set to 2.
In Test Example 2-1, the following kit currently available on the market was used. CTLA4 B7-1 (Biotinylated) inhibitor screening assay kit (manufactured by BPS Bioscience, BPS #72009)
The operation for this test example was based on “ASSAY PROTOCOL” described in the data sheet of the above-described kit. A brief procedure is shown below.
First, each well of a 96-well plate was coated with CTLA4. Specifically, a CTLA4 solution (2 μg/mL) was dispensed into each well of the 96-well plate, and the plate was incubated overnight at 4° C.
Subsequently, the CTLA4 solution was removed, and each well was washed.
Subsequently, blocking was performed. Specifically, a blocking buffer contained in the kit was dispensed into each well, and the plate was incubated for 1 hour at room temperature.
Subsequently, a solution of the Sample 1 was dispensed into each well, and the plate was incubated for 1 hour at room temperature.
Subsequently, a biotin-labeled B7-1 solution (1.25 ng/mL) was dispensed into each well of the 96-well plate, and the plate was incubated for 2 hours at room temperature.
After the above-described incubation, the peptide solution was removed, and each well was washed. […]
Subsequently, the blocking buffer was removed, a chemiluminescent reagent contained in the above-described kit was dispensed into each well, and the chemiluminescence intensity in each well was measured with a luminometer. […]

[2] = molecular target: T2, binding of CTLA4 to B7-2 (Homo sapiens, UniProt P16410); assay: Test for evaluating binding inhibitory properties between CTLA4 and B7-2 (BPS #79658 inhibitor screening assay kit, chemiluminescence); details: peptide concentration 5 μM and/or 10 μM as in Table 2; plate-coated CTLA4, biotin-labeled B7-2; n=2 wells; versus no peptide added
T2 construct: purchased BPS Bioscience BPS #79658
T2 sequence (P16410 36-161 limits assumed): T1 sequence (P16410 36-161 limits assumed)
Procedure: The binding inhibitory properties between CTLA4 and B7-2 were evaluated for the 6 kinds of sample peptides synthesized in the above-described Test Example 1.
In this test, Test Examples 3-1 to 3-9 were set according to the kind of sample peptide used and the peptide concentration as shown in Table 2 mentioned above. In addition, a peptide-free group was set as Test Example 3-10. The tests of the above-described 10 categories in total were carried out as follows. The numbers “1 to 10” shown in the “No.” column of Table 2 represent “Test Examples 3-1 to 3-10” in Test Example 3. In addition, the number (n) of test wells in each of the above-described examples was set to 2.
In Test Example 3-1, the following kit currently available on the market was used. CTLA4 B7-2 (Biotinylated) inhibitor screening assay kit (BPS #79658)
The operation for this test example was based on “ASSAY PROTOCOL” described in the data sheet of the above-described kit.
Test Example 3-1 was performed using the same materials and processes as those of Test Example 2-1 except that the above-described kit was used.

suppression of binding of CTLA4 to B7-2 (chemiluminescence intensity, FIG. 2) [2]	Sequence	suppression of binding of CTLA4 to B7-1 (chemiluminescence intensity, FIG. 1) [1]
	MQIPQAPWPVVWAVLQLGWRMQIPQAPWRPVVWAVLQLGW [Sample 5]	no action of suppressing the binding of CTLA4 to B7-1 was observed
	MQIPQAPWPVVWAVLQLGWR (MQIPQAPWPVVWAVLQLGWR-NH2) [Sample 4]	no action of suppressing the binding of CTLA4 to B7-1 was observed
not suppressed	KKRTLRKNDR KKR (KKRTLRKNDRKKR-NH2) [Sample 6]	not suppressed
